How the values were obtained:
akt1_human AKT1 [1] = biological target: akt1_human AKT1 (UniProt P31749)
mbp_bovin MBP [2] = biological target: mbp_bovin MBP (UniProt P02687)
akt1_human AKT1 [3] = biological target: akt1_human AKT1 (UniProt P31749); remark: listed apart in the source
mbp_bovin MBP [4] = biological target: mbp_bovin MBP (UniProt P02687); remark: listed apart in the source
akt1_human AKT1 [5] = biological target: akt1_human AKT1 (UniProt P31749); remark: listed apart in the source

akt1_human AKT1, sequence (P31749 whole entry): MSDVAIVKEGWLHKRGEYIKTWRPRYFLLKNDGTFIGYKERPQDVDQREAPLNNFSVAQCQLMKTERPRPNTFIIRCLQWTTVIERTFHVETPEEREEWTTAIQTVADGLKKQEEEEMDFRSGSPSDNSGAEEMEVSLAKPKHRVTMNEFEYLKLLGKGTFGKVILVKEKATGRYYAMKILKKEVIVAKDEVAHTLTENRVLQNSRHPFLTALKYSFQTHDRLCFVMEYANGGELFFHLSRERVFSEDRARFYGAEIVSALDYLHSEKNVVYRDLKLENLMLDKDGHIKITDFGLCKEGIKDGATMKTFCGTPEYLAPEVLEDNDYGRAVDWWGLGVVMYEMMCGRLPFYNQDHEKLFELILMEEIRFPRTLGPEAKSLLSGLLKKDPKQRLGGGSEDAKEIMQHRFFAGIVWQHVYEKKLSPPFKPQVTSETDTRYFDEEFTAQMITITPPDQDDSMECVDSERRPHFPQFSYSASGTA
mbp_bovin MBP, sequence (P02687 whole entry): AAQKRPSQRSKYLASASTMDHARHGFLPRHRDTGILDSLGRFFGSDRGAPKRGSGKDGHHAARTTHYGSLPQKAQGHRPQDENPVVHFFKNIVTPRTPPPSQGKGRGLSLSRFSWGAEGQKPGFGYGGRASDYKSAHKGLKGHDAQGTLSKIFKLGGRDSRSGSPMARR

## Leucine-rich repeat serine/threonine-protein kinase 2 (Homo sapiens), Q5S007 I2020T
akt1_human AKT1 [1]
  effect of a mutation on the interaction: decreasing interaction
mbp_bovin MBP [2]
  effect of a mutation on the interaction: increasing interaction

## Leucine-rich repeat serine/threonine-protein kinase 2 (Homo sapiens), Q5S007 G2019S
akt1_human AKT1 [3]
  effect of a mutation on the interaction: decreasing interaction
mbp_bovin MBP [4]
  effect of a mutation on the interaction: increasing interaction

## Leucine-rich repeat serine/threonine-protein kinase 2 (Homo sapiens), Q5S007 R1441C
akt1_human AKT1 [5]
  effect of a mutation on the interaction: decreasing interaction
